Here are results for six molecules from JP2014043405A (dated 2014).

The target in assay [1] is T1, ヒトFcγRIIb (human, UniProt P31994 43-217).
T1 construct: extracellular domain; for the crystals it was expressed with kifunensine and its N-glycans trimmed with Endo F1; also called FcγRIIb細胞外領域
T1 sequence (looked up): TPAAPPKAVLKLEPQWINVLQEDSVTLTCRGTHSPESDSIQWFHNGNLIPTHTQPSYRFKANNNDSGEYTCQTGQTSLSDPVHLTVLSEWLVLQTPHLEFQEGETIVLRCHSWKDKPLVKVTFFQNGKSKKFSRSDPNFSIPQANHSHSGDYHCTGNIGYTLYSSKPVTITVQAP
Put plainly: SPR, KD; reference IL6R-B3/IL6R-L; the lowest of the named variants.

The target of assay [2] is T2, ヒトFcγRIIa (R) (human, UniProt P12318 34-217).
T2 construct: extracellular domain; N-glycans trimmed with Endo F1/F2/F3 for the crystals; also called FcγRIIa R型
T2 sequence (looked up): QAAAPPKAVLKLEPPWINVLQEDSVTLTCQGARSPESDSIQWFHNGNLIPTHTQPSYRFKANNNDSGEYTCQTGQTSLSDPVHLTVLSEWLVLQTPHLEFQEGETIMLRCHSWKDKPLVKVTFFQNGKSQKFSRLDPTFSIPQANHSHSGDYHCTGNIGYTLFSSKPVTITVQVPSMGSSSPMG
Put plainly: SPR, KD; reference IL6R-B3/IL6R-L.

Assay [3] has as its target T1, ヒトFcγRIIb. Put plainly: SPR, KD; reference IL6R-B3/IL6R-L.
Assay [4] deals with T1, ヒトFcγRIIb. Put plainly: SPR, KD; reference IL6R-B3/IL6R-L; the highest of the named variants.
The target in assay [5] is T3, ヒトFcγRIa (human, UniProt P12314 16-292). The assay can be described thus: SPR, KD.
T3 sequence (P12314 16-292): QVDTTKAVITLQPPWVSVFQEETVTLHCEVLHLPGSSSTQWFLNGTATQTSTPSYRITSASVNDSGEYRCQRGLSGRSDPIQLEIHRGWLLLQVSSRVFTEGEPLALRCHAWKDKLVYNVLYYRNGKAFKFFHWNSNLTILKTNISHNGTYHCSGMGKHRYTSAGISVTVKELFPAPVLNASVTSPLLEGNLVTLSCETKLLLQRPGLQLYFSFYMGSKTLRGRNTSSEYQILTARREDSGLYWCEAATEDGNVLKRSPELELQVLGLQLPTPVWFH
The target in assay [6] is T4, ヒトFcγRIIa (H) (human, UniProt P12318 34-217).
T4 construct: extracellular domain; also called FcγRIIa H型
T4 sequence (looked up): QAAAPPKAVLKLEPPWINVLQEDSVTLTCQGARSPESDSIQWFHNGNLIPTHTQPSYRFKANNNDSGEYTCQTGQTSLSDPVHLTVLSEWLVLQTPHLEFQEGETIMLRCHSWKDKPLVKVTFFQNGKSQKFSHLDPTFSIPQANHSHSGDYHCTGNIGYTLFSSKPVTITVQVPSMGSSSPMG
Put plainly: SPR, KD.

Assay [7] concerns the target T2, ヒトFcγRIIa (R). The assay can be described thus: SPR, KD.
Assay [8] concerns the target T1, ヒトFcγRIIb. The assay can be described thus: SPR, figure legend (Fig. 6).
Assay [9] concerns the target T4, ヒトFcγRIIa (H). The assay can be described thus: SPR, figure legend (Fig. 5).
For assay [10], the target named is T5, ヒトFcRn (human, UniProt P55899 24-290; P61769 21-119, limits assumed).
T5 construct: also called human FcRn; complex of human FcRn and human beta-2 microglobulin
T5 sequence (P55899 24-290 limits assumed, chain 1 of 2): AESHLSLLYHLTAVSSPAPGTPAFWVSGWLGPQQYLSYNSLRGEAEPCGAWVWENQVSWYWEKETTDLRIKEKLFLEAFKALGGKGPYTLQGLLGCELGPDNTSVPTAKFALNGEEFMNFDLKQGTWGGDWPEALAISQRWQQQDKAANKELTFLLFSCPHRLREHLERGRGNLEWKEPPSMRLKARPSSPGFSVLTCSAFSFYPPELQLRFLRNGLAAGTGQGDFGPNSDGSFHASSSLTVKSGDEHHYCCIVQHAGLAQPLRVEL
T5 sequence (P61769 21-119 limits assumed, chain 2 of 2): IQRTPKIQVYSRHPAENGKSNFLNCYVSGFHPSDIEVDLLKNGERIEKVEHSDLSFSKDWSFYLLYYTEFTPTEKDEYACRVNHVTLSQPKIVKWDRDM
Put plainly: SPR, figure legends of Figs. 3-11.

Assay [11] addresses T3, ヒトFcγRIa. Put plainly: SPR, figure legend (Fig. 3).
The target of assay [12] is T6, ヒトFcγRIIIa (F) (human, UniProt P08637 17-208).
T6 construct: extracellular domain
T6 sequence (P08637 17-208): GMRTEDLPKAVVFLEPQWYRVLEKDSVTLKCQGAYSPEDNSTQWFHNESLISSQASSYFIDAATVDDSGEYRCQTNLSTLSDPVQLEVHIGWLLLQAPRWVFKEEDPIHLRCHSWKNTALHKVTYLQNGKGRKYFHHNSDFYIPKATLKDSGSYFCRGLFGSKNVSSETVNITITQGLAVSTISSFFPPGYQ
The assay can be described thus: SPR, figure legend (Fig. 7).

The target of assay [13] is T2, ヒトFcγRIIa (R). The assay can be described thus: SPR, figure legend (Fig. 4).
Assay [14] deals with T7, マウスFcγRIII (mouse, UniProt P08508 31-215, limits assumed).
T7 construct: also called mouse FcγRIII
T7 sequence (looked up): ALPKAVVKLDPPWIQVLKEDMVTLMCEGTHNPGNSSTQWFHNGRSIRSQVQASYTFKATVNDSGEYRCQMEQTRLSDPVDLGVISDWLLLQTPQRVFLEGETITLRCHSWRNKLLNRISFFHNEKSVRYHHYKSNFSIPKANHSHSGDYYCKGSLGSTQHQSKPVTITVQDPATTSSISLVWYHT
Put plainly: SPR, Biacore; antibody captured on immobilised human FcRn, FcγR as analyte, pH 7.4, 25C.

The target in assay [15] is T8, マウスFcγRI (mouse, UniProt P26151 25-297, limits assumed).
T8 construct: also called mouse FcγRI
T8 sequence (looked up): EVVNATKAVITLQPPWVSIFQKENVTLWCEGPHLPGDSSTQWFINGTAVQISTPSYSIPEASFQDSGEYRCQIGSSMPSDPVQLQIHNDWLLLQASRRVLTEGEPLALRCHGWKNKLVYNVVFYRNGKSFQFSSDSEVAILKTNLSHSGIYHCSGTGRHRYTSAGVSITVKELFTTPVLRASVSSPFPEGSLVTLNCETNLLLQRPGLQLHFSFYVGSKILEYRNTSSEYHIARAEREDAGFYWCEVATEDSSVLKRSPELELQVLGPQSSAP
Described as above.

Assay [16] has as its target T9, マウスFcγRIIb (mouse, UniProt P08101 30-210, limits assumed).
T9 construct: also called mouse FcγRIIb
T9 sequence (looked up): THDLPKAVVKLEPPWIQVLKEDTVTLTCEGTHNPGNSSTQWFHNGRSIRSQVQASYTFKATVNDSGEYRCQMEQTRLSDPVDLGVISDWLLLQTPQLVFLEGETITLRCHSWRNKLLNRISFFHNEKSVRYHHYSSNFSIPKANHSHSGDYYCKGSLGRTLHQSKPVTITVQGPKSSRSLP
The description is as above.

Assay [17] deals with T10, マウスFcRn (mouse, UniProt Q61559 22-297, limits assumed).
T10 construct: also called mouse FcRn
T10 sequence (looked up): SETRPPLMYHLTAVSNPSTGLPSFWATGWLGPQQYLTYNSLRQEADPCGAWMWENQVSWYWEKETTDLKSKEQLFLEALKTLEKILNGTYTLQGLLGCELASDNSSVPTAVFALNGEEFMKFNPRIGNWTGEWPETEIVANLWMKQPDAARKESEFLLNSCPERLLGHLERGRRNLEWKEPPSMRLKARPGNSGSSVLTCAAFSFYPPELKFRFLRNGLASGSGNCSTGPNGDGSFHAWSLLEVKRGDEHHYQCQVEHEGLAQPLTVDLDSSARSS
The assay can be described thus: SPR, Biacore T100, pH 7.0, 25C.

In assay [18] the target is T10, マウスFcRn. The assay can be described thus: SPR, Biacore T100; antibody captured on protein L, FcRn as analyte, pH 7.0, 25C; reference Fv4-IgG1.

B1: IL6R-BP495/IL6R-L (antibody)
chain 1: QVQLQESGPGLVKPSETLSLTCAVSGHSISHDHAWSWVRQPPGEGLEWIGFISYSGITNYNPSLQGRVTISRDNSKNTLYLQMNSLRAEDTAVYYCARSLARTTAMDYWGEGTLVTVSSASTKGPSVFPLAPSSKSTSGGTAALGCLVKDYFPEPVTVSWNSGALTSGVHTFPAVLQSSGLYSLSSVVTVPSSSLGTQTYICNVNHKPSNTKVDKKVEPKSCDKTHTCPPCPAPELLGDDSVFLFPPKPKDTLMISRTPEVTCVVVDVGEEDGEVKFNWYVDGVEVHNAKTKPREEQDNSTYRVVSVLTVLHQDWLNGKEYKCKVSNKALPRPIEKTISKAKGQPREPQVYTLPPSRDELTKNQVSLTCLVKGFYPSDIAVEWESNGQPENNYKTTPPVLDSDGSFFLYSKLTVDKSRWQQGNVFSCSVMHEALHNHYTQESLSLSP
chain 2: not shown
Regarding B1, the “fold enhancement of binding, IL6R-B3/IL6R-L = 1” value in assay [1] came to 321 fold.

B2: IL6R-BP230/IL6R-L (antibody)
chain 1: QVQLQESGPGLVKPSETLSLTCAVSGHSISHDHAWSWVRQPPGEGLEWIGFISYSGITNYNPSLQGRVTISRDNSKNTLYLQMNSLRAEDTAVYYCARSLARTTAMDYWGEGTLVTVSSASTKGPSVFPLAPSSKSTSGGTAALGCLVKDYFPEPVTVSWNSGALTSGVHTFPAVLQSSGLYSLSSVVTVPSSSLGTQTYICNVNHKPSNTKVDKKVEPKSCDKTHTCPPCPAPDLLGDDSVFLFPPKPKDTLMISRTPEVTCVVVDVSDEDGEVKFNWYVDGVEVHNAKTKPREEQDNSTYRVVSVLTVLHQDWLNGKEYKCKVSNKALPRPIEKTISKAKGQPREPQVYTLPPSRDELTKNQVSLTCLVKGFYPSDIAVEWESNGQPENNYKTTPPVLDSDGSFFLYSKLTVDKSRWQQGNVFSCSVMHEALHNHYTQESLSLSP
chain 2: not shown
For the molecule B2, the “fold enhancement of binding against IL6R-B3/IL6R-L” value in assay [2] is around 1.9 fold. Moreover, in [3], the “fold enhancement of binding against IL6R-B3/IL6R-L” value was around 150 fold and the “fold improvement of binding activity against IL6R-B3” value was determined as 148 fold.

B3: IL6R-BP489/IL6R-L (antibody)
chain 1: QVQLQESGPGLVKPSETLSLTCAVSGHSISHDHAWSWVRQPPGEGLEWIGFISYSGITNYNPSLQGRVTISRDNSKNTLYLQMNSLRAEDTAVYYCARSLARTTAMDYWGEGTLVTVSSASTKGPSVFPLAPSSKSTSGGTAALGCLVKDYFPEPVTVSWNSGALTSGVHTFPAVLQSSGLYSLSSVVTVPSSSLGTQTYICNVNHKPSNTKVDKKVEPKSCDKTHTCPPCPAPDLLGDDSVFLFPPKPKDTLMISRTPEVTCVVIDVAEEDGEVKFNWYVDGVEVHNAKTKPREEQDNSTYRVVSVLTVLHQDWLNGKEYKCKVSNKALPRPIEKTISKAKGQPREPQVYTLPPSRDELTKNQVSLTCLVKGFYPSDIAVEWESNGQPENNYKTTPMVLDSDGSFFLYSKLTVDKSRWQQGNVFSCSVMHEALHNHYTQESLSLSP
chain 2: not shown
Take B3: in assay [4], the “fold enhancement of binding, IL6R-B3/IL6R-L = 1” value was 3100 fold.

B4: IL6R-B3/IL6R-L (antibody, human IgG1)
heavy: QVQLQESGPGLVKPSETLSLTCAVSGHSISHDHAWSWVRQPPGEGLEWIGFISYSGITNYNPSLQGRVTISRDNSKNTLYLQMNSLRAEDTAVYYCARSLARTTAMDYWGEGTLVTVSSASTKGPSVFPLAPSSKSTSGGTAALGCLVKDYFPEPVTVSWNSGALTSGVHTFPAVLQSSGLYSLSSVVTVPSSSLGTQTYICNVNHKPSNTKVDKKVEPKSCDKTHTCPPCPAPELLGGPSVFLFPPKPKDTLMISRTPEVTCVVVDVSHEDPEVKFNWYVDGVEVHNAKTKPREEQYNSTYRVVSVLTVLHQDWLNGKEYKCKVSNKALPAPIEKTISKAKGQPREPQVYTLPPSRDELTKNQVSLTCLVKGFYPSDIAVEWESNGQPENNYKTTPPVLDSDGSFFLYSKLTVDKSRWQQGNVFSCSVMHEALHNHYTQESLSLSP
light: DIQMTQSPSSLSASVGDRVTITCRASQDISSYLNWYQQKPGKAPKLLIYYTSRLHSGVPSRFSGSGSGTDFTFTISSLQPEDIATYYCQQGNTLPYTFGQGTKVEIK
As for B4, the binding result in assay [5], in [6] and in assay [7] was “binds” each time.

B5: Fv4-IgG1-F157 (antibody)
heavy: QVQLQESGPGLVKPSETLSLTCAVSGHSISHDHAWSWVRQPPGEGLEWIGFISYSGITNYNPSLQGRVTISRDNSKNTLYLQMNSLRAEDTAVYYCARSLARTTAMDYWGEGTLVTVSSASTKGPSVFPLAPSSKSTSGGTAALGCLVKDYFPEPVTVSWNSGALTSGVHTFPAVLQSSGLYSLSSVVTVPSSSLGTQTYICNVNHKPSNTKVDKKVEPKSCDKTHTCPPCPAPELLGGPSVFLFPPKPKDTLMISRTAEVTCVVVDVSHEDPEVKFNWYVDGVEVHNAKTKPREEQYNSTYRVVSVLTPLHQDWLNGKEYKCKVSNKALPAPIEKTISKAKGQPREPQVYTLPPSRDELTKNQVSLTCLVKGFYPSDIAVEWESNGQPENNYKTTPPVLDSDGSFFLYSKLTVDKSRWQQGNVFSCSVLHEALHYHYTQKSLSLSP
light: DIQMTQSPSSLSASVGDSVTITCQASTDISSHLNWYQQKPGKAPELLIYYGSHLLSGVPSRFSGSGSGTDFTFTISSLEAEDAATYYCGQGNRLPYTFGQGTKVEIERTVAAPSVFIFPPSDEQLKSGTASVVCLLNNFYPREAKVQWKVDNALQSGNSQESVTEQDSKDSTYSLSSTLTLSKADYEKHKVYACEVTHQGLSSPVTKSFNRGEC
notes: also called VH3-IgG1-F157/VL3-CK
On to B5, for which the binding result in assay [8], in [9], in assay [10], in assay [11], in assay [12] and in assay [13] was “binds” each time. For the same molecule, the binding result in assay [14], in assay [15] and in assay [16] was “binds” each time.

B6: Fv4-hF1 (antibody, human IgG1, kappa)
heavy: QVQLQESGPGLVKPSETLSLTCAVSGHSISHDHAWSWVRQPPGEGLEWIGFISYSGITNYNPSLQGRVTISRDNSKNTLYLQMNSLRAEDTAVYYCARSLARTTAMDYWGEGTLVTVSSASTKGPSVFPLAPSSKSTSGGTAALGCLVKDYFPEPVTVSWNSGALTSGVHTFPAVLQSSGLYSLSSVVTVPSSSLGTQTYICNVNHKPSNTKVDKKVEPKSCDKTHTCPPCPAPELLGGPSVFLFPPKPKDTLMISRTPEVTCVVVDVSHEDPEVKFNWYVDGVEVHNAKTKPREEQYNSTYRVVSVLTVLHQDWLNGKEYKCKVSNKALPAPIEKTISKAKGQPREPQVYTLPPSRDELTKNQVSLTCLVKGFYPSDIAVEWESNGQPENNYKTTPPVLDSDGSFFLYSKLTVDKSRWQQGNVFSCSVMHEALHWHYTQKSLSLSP
light: DIQMTQSPSSLSASVGDSVTITCQASTDISSHLNWYQQKPGKAPELLIYYGSHLLSGVPSRFSGSGSGTDFTFTISSLEAEDAATYYCGQGNRLPYTFGQGTKVEIERTVAAPSVFIFPPSDEQLKSGTASVVCLLNNFYPREAKVQWKVDNALQSGNSQESVTEQDSKDSTYSLSSTLTLSKADYEKHKVYACEVTHQGLSSPVTKSFNRGEC
For B6, in assay [17], the Kd was found to be 150 nM. Besides, in [18], the “fold improvement of affinity against IgG1” value is around 24.7 fold.
